Target: full-length human growth hormone receptor (stably transfected in BaF3 cells, cell line Baf-B03 B2B2) (human) (UniProt P10912)
Assay: cell-based or functional assay

Chain of UniProt P10912 (P10912 19-638): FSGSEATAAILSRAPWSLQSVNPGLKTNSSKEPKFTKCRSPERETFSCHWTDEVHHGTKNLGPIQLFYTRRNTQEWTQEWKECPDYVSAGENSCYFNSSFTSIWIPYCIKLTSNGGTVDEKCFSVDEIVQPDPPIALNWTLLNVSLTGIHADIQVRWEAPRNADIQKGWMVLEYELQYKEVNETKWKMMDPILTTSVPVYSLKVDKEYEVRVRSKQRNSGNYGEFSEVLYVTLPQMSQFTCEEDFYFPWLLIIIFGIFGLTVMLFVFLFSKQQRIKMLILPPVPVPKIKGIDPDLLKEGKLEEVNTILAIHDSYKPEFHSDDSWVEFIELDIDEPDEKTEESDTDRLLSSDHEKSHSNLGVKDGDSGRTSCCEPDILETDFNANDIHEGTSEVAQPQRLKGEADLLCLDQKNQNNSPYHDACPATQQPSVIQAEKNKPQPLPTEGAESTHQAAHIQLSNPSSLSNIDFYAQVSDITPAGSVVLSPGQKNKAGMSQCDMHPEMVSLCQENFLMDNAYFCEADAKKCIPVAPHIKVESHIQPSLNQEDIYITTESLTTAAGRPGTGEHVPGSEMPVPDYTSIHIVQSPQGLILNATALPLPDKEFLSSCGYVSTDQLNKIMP

Mono-PEG-hGH (one PEG attached to one hGH molecule, Lot No BPM#04-003) (from UniProt P01241 27-217) (ligand)
Specific Activity (IU/mg) in the Cell Proliferation Assay: 0.46 IU/mg

Di-PEG-hGH (two PEGs attached to one hGH molecule, Lot No BPM#04-004) (from UniProt P01241 27-217) (ligand)
Specific Activity (IU/mg) in the Cell Proliferation Assay: 0.25 IU/mg

Source: patent publication US20060134736A1
